Data on 26 molecules can be found in patent US20240209089A1 (SUZHOU SMARTNUCLIDE BIOPHARMACEUTICAL, published 2024).

One assay concerns the target T1, CD8α-Fc fusion protein (human).
T1 construct: also called CD8 α-Fc protein; CD8α-Fc tag antigen
The assay is described as follows: phage ELISA on coated CD8α-Fc. On the procedure: After 3-4 rounds of panning, 96 clones were randomly picked from the plate subjected to the last round of panning for identification. 96 single colonies were randomly picked and respectively cultured to produce and purify phages. The plate was coated with CD8α-Fc fusion protein at 4° C. overnight, then blocked with 3% BSA, and reacted for 1 hour at 37° C. Subsequently, the phage supernatant obtained after infection was added into each well (the control group was blank phage), and incubated for 1 hour at 37° C. After PBST washing, horseradish peroxidase labeled anti-M13 secondary antibody (purchased from Beijing Yiqiao Shenzhou Biotechnology Co., Ltd.) was added, and reacted for 1 hour at room temperature. After washing, a tetramethylbenzidine (TMB) chromogenic solution was added and an absorption value at 450 nm was read. Meanwhile, the plate was coated with an Fc protein at 4° C. overnight, blocked with 3% BSA, and reacted for 1 hour at 37° C. After washing, the phage supernatant obtained after infection (the control group was blank phage) was added to react for 1 hour at 37° C. After washing, the horseradish peroxide labeled anti-M13 secondary antibody (purchased from Beijing Yiqiao Shenzhou Biotechnology Co., Ltd.) was added to react for 1 hour at room temperature. After that, a TMB chromogenic solution was added and an absorption value at 450 nm was read. Where, when a ratio obtained by an OD value being divided by an OD value of blank control was >=4, it was judged that a candidate antibody could bind the CD8α-Fc protein; meanwhile, a ratio obtained by the CD8α-Fc binding OD value of the above antibody capable of binding the CD8 α-Fc antigen protein being divided by the Fc protein binding OD value was >=5, it was considered that the candidate antibody could specifically bind the CD8α part rather than the Fc part. […] The bacteria in candidate clone well were transferred to an LB liquid culture medium containing 100 μg/mL ampicillin so as to perform plasmid extraction and sequencing.
In general terms: In an ELISA, binding on a coated surface is turned into a signal by an enzyme label.

Assay [1] has as its target T2, human CD8α full-length protein (human, UniProt P01732 22-235).
T2 construct: whole, on cells; The same entry is used for MC38-CD8α transfectants and for human CD8+ T cells from peripheral blood; the assay field says which cells; also called cell surface CD8α; MC38-CD8α cells
The experiment in a line: flow cytometry on MC38-CD8α cells, secondary antibody-PE. How it is done: Mouse colon cancer MC38 cell lines stable transfected with human CD8α full-length protein gene were constructed to obtain MC38 cells (MC38-CD8α cells) stably expressing human CD8α proteins on the cell membrane. Prior to use, the cells were cultured to >90% convergence. The anti-CD8α single domain antibody was used to perform flow cytometry on these cells for quantitative analysis of indirect immunofluorescence staining so as to determine the quantity of receptors on surface of each cell.
The cells were collected and suspended to a concentration of 2.5×10⁶ cells/mL. 200 μL of cell aliquot samples were mixed with 20 μL of primary antibody, and the obtained mixture was incubated for 30 min on ice. The cells were centrifuged, washed and re-suspended, then 5 μL of secondary antibody-PE conjugate was added, and then the above mixture was incubated for 30 minutes on ice. The cells were washed twice, re-suspended and underwent flow cytometry on BD FACSCelesta™. For each tube, at least 5×10⁴ events were collected. All the analyses were single colors, and PE was detected in […].
A general note: Flow cytometry measures light scatter and fluorescence of single cells or particles in a stream.

T1 sequence (chain, as listed by the source): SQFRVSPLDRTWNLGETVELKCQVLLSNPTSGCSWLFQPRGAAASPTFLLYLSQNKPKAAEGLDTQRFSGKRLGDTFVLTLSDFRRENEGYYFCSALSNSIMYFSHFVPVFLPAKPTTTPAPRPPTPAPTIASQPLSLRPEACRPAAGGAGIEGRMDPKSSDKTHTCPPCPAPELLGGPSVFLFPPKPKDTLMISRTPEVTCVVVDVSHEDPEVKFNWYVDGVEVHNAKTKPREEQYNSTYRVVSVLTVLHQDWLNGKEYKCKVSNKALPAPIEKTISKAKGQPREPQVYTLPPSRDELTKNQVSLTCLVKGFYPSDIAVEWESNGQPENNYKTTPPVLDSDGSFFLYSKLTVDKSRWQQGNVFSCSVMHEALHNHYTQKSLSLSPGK
T2 sequence (P01732 22-235): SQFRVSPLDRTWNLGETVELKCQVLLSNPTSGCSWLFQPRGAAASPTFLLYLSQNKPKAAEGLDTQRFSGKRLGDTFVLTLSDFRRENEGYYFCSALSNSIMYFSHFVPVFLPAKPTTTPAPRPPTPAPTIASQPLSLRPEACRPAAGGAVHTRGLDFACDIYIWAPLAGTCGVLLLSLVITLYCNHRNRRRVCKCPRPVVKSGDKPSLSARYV

B1: phage clone No. 46 (C46) (VHH)
VHH: QVQLVESGGGLVQAGGSLRLSCAASGVTFDDLAIGWFRQVPGKGREGVSTIGTSDGTAYYADSVKGRFTISSDNAKNTVYLQMNSLKPEDTAVYYCAVDLDYGLGSLLPMGYDYWGQGTQVTVSS
As for B1, the OD450 with CD8α-Fc fusion protein is 2.35.

B2: phage clone No. 42 (C42) (VHH)
VHH: QVQLVESGGGLVQAGGSLRLSCAASGLTFEDYAIGWFRQAPGKEREGISCIRIYDGNTYSAESVKGRFTISSDNAKNQVYLQINTLKPEDTAVYYCAAGSYYSCSVYPDYDMDYWGKGTLVTVSS
Regarding B2, in the assay with CD8α-Fc fusion protein, the OD450 is 3.18.

B3: phage clone No. 37 (C37) (VHH)
VHH: QLQLVESGGGLVQAGGSLRLSCAASGLTFEDYAIGWFRQAPGKEREGISCIRIYDGNTYSAESVKGRFTISSDNAKNQVYLQINTLKPEDTAVYYCAAGSYYSCSVYPDYDMDYWGKGTLVTVSS
The molecule B3 displayed an OD450 with CD8α-Fc fusion protein of 3.2.

B4: phage clone No. 2 (C2) (VHH)
VHH: QVQLVESGGGLVQPGGSLRLSCAASGFTLDYYAIGWFRQAPGKEREGISCIRIYDGNTYSAESVKGRFTISSDNAKNQVYLQINTLKPEDTAVYYCAAGSYYSCSVYPDYDMDYWGKGTLVTVSS
In the assay with CD8α-Fc fusion protein, B4 returned an OD450 of 3.21.

B5: phage clone No. 20 (C20) (VHH)
VHH: QVQLVESGGGLVQPGGSLRLSCAASGSIFSINTMGWYRQAPGKQRELVATMHSTGSTNYADSVKGRFTISRDNAKKTVYLQMNSLEPDDTAVYYCHVDDTGWGTVDSWGQGTQVTVS
B5 registered an OD450 in the assay with CD8α-Fc fusion protein of 3.19.

B6: anti-CD8α single domain antibody C20 (VHH, not shown: small tags and cut ends)
VHH: QVQLVESGGGLVQPGGSLRLSCAASGSIFSINTMGWYRQAPGKQRELVATMHSTGSTNYADSVKGRFTISRDNAKKTVYLQMNSLEPDDTAVYYCHVDDTGWGTVDSWGQGTQVTVS
notes: Only the E. coli expression is described for this antibody
For B6, in assay [1], the “Positive rate (%)” value came to 98.9%.

B7: anti-CD8α single domain antibody S7 (VHH, not shown: small tags and cut ends)
VHH: QLQLVESGGGLVQPGGSLRLSCAASGSIFSINGMGWYRQAPGKQREAVAVITSGGKIDYLDSVKGRFTISRDSAKNTVALQMNSLKPEDTAVYYCNAYGDVRRGEVRWGQGTQVTVSS
notes: as for B6
With B7, the “Positive rate (%)” value in assay [1] was 99.3%.

B8: phage clone No. 55 (S7) (VHH)
VHH: QLQLVESGGGLVQPGGSLRLSCAASGSIFSINGMGWYRQAPGKQREAVAVITSGGKIDYLDSVKGRFTISRDSAKNTVALQMNSLKPEDTAVYYCNAYGDVRRGEVRWGQGTQVTVSS
In the assay with CD8α-Fc fusion protein, B8 came in with an OD450 of 1.61.

B9: anti-CD8α single domain antibody S23 (VHH, not shown: small tags and cut ends)
VHH: QVQLVESGGGLVQPGGSLRLSCAASGSIFSINGMGWYRQAPGKQRELVAAITSGGKTDYLDSVKGRFTISRDSAKNTVALQMNSLKPEDTAVYYCNAYGDVQRGEVRWGQGTQVTVSS
notes: as for B6
As to B9, the “Positive rate (%)” value in assay [1] came out at 99.3%.

B10: phage clone No. 71 (S23) (VHH)
VHH: QVQLVESGGGLVQPGGSLRLSCAASGSIFSINGMGWYRQAPGKQRELVAAITSGGKTDYLDSVKGRFTISRDSAKNTVALQMNSLKPEDTAVYYCNAYGDVQRGEVRWGQGTQVTVSS
In the assay with CD8α-Fc fusion protein, B10 showed an OD450 of 1.62.

B11: anti-CD8α single domain antibody S6 (VHH, not shown: small tags and cut ends)
VHH: QVQLVESGGGLVQPGGSLRLSCAVSGTIFSINTMGWYRQVPGKQRELVATITSSGSTKYADSVKGRFTVSRDNAKRTVFLQMDSLKPEDTAVYYCHANDVGWGTVNAWGQGTLVTVSS
notes: as for B6
As for B11, the “Positive rate (%)” value in assay [1] is 97.5%.

B12: phage clone No. 54 (S6) (VHH)
VHH: QVQLVESGGGLVQPGGSLRLSCAVSGTIFSINTMGWYRQVPGKQRELVATITSSGSTKYADSVKGRFTVSRDNAKRTVFLQMDSLKPEDTAVYYCHANDVGWGTVNAWGQGTLVTVSS
As to B12, the OD450 with CD8α-Fc fusion protein is 1.3.

B13: phage clone No. 53 (S5) (VHH)
VHH: QVQLVESGGGLVQAGGSLRVSCAASGGTFSSTAMGWFRQAPGKEREFVAAISWSGGYTYYADSVRGRFTISRDNALNTVSLQMNSLKPEDTAVYYCAADISGLDTVAAGIFTEPNIDYWGKGTLVTVSS
With B13, the OD450 with CD8α-Fc fusion protein came out at 1.2.

B14: phage clone No. 29 (C29) (VHH)
VHH: QVQLVESGGGLVQAGGSLRLSCVASGFTSDDYVIGWFRQAPGKEREGVSCISSSDGTTNYADSVKGRFTISSDNAKNTVYLQMNSLKPEDTAVYYCAADPMRVCPYSGTYYGILGFGTSGQGTQVTVSS
In the assay with CD8α-Fc fusion protein, B14 displayed an OD450 of 1.75.

B15: anti-CD8α single domain antibody S22 (VHH, not shown: small tags and cut ends)
VHH: QLQLVESGGGLVQPGGSLRLSCAASGSIFSINTMGWYRQAPGKQRELVATMHSTGSTNYADSVKGRFTISRDNAKKTVYLQMNSLKPDDTAVYYCHVDDMGWGTVDSWGQGTQVTVSS
notes: as for B6
On to B15, for which the “Positive rate (%)” value in assay [1] came out at 97%.

B16: anti-CD8α single domain antibody S32 (VHH, not shown: small tags and cut ends)
VHH: QLQLVESGGGLVQPGGSLRLSCAASGSIFSINTMGWYRQAPGKQRELVATMHSTGSTNYADSVKGRFTISRDNAKKTVYLQMNSLKPDDTAVYYCHVDDMGWGTVDSWGQGTQVTVSS
notes: as for B6
Turning to B16, in assay [1], the “Positive rate (%)” value was 99.1%.

B17: phage clone No. 70 (S22) (VHH)
VHH: QLQLVESGGGLVQPGGSLRLSCAASGSIFSINTMGWYRQAPGKQRELVATMHSTGSTNYADSVKGRFTISRDNAKKTVYLQMNSLKPDDTAVYYCHVDDMGWGTVDSWGQGTQVTVSS
For the molecule B17, the OD450 with CD8α-Fc fusion protein amounted to 1.73.

B18: phage clone No. 45 (C45) (VHH)
VHH: QVQLVESGGGLVQPGGSLRLSCAASGPIFSINTMGWYRQVPGKQRELVATMHSTGSTNYADSVKGRFTISRDNAKKTVYLQMNSLKPDDTAVYYCHVDDTGWGTVDSWGQGTQVTVSS
B18 gave an OD450 with CD8α-Fc fusion protein of 2.42.

B19: phage clone No. 61 (S13) (VHH)
VHH: QLQLVESGGGLVQPGGSLRLSCVVSGSIFAINTMGWYRQAPGKQRELVATMHSYGSTNYADSVKGRFTISRDNAKKTVYLQMNSLKPADTAVYYCHADDTGWGTVDSWGQGTQVTVSS
The molecule B19 gave an OD450 with CD8α-Fc fusion protein of 1.71.

B20: anti-CD8α single domain antibody C30 (VHH, not shown: small tags and cut ends)
VHH: QVQLVESGGGLVQPGGSLRLSCVASGSIFAINTMGWYRQAPGKQRELVADMHSTGSTNYADSVKGRFTISRDNAKKKVYLQMNSLKPDDTAVYYCHVDDRGWGTVDSWGQGTQVTVSS
notes: as for B6
As for B20, the “Positive rate (%)” value in assay [1] was determined as 98.8%.

B21: phage clone No. 24 (C24) (VHH)
VHH: QVQLVESGGGLVQPGGSLRLSCAASGPIFSINTMGWYRQAPGKQRELVATMHSTGSTNYADSVKGRFTISRDNAKKTVYLQMNSLKPDDTAVYYCHVDDTGWGTVDSWGQGIQVTVSS
The molecule B21 yielded an OD450 with CD8α-Fc fusion protein of 2.35.

B22: phage clone No. 66 (S18) (VHH)
VHH: QLQLVESGGGLVQPGGSLRLSCAASGSIFSINTMGWYRQAPGKQRELVATMTSHGSTNYADSVKGRFTISRDNSKNTVYLQMNSLKLQDTAVYYCNANDMGWGTVDAWGQGTLVTVSS
B22 registered an OD450 with CD8α-Fc fusion protein of 1.72.

B23: phage clone No. 27 (C27) (VHH)
VHH: QLQLVESGGGLVQPGGSLRLSCVVSGSIFAINTMGWYRQAPGKQRELVATMHSGGSTNYADSVKGRFTISRDAAPKTVYLQMNSLKPADTAVYYCHADDSGWGTVDSWGQGIQVTVSS
In the case of B23, in the assay with CD8α-Fc fusion protein, the OD450 is 2.74.

B24: anti-CD8α single domain antibody C45 (VHH, not shown: small tags and cut ends)
VHH: QVQLVESGGGLVQPGGSLRLSCAASGPIFSINTMGWYRQVPGKQRELVATMHSTGSTNYADSVKGRFTISRDNAKKTVYLQMNSLKPDDTAVYYCHVDDTGWGTVDSWGQGTQVTVSS
notes: as for B6
In the case of B24, the “Positive rate (%)” value in assay [1] came out at 99.1%.

B25: anti-CD8α single domain antibody S18 (VHH, not shown: small tags and cut ends)
VHH: QLQLVESGGGLVQPGGSLRLSCAASGSIFSINTMGWYRQAPGKQRELVATMTSHGSTNYADSVKGRFTISRDNSKNTVYLQMNSLKLQDTAVYYCNANDMGWGTVDAWGQGTLVTVSS
notes: as for B6
Turning to B25, the “Positive rate (%)” value in assay [1] stood at 99.2%.

B26: phage clone No. 30 (C30) (VHH)
VHH: QVQLVESGGGLVQPGGSLRLSCVASGSIFAINTMGWYRQAPGKQRELVADMHSTGSTNYADSVKGRFTISRDNAKKKVYLQMNSLKPDDTAVYYCHVDDRGWGTVDSWGQGTQVTVSS
Regarding B26, the OD450 in the assay with CD8α-Fc fusion protein is 2.03.
